Measured values as given in US20230151095A1 (published 2023).
Where a chain is given by its changes, count along the chain named. Blank lines part the entries; values can stand above or below the binder they belong to.

Assays:
[1] = biological target: T1, XENP23311 (His-tagged NKG2D-Fc) (human, UniProt P26718 78-216); experiment: Octet
T1 chain: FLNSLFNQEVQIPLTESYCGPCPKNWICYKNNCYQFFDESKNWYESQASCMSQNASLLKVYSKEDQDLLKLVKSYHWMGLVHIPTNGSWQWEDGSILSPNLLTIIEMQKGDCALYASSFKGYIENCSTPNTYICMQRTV

CD16 = CD16 (UniProt P08637 17-208)
Chain of CD16 (P08637 17-208): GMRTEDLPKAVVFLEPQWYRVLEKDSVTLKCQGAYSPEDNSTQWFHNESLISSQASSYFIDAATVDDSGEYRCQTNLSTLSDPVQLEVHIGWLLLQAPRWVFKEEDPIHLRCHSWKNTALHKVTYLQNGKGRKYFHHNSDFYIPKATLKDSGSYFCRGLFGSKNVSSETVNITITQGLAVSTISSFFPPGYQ

B1: XENP40891 (LB_1002, mAb-scFv VHVL) (antibody)
chain 1: EVQLLESGGGLVQPGGSLRLSCAVSGFSLSSYGVIWVRQAPGKGLEYVSWVSSGGSTNYASSVKGRFTISRDTSKNTVYLQMNSLRAEDTAVYFCARGATNSGTDIWGPGTLVTVSSASTKGPSVFPLAPSSKSTSGGTAALGCLVKDYFPEPVTVSWNSGALTSGVHTFPAVLQSSGLYSLSSVVTVPSSSLGTQTYICNVNHKPSDTKVDKKVEPKSCDKTHTCPPCPAPELLGGPSVFLFPPKPKDTLMISRTPEVTCVVVDVSHEDPEVKFNWYVDGVEVHNAKTKPREEEYNSTYRVVSVLTVLHQDWLNGKEYKCKVSNKALPAPIEKTISKAKGQPREPQVYTLPPSREEMTKNQVSLTCDVSGFYPSDIAVEWESDGQPENNYKTTPPVLDSDGSFFLYSKLTVDKSRWEQGDVFSCSVMHEALHNHYTQKSLSLSPGK
chain 2: not shown
chain 3: DIVMTQSPSSLSASVGDRVTITCRASQSINSWLSWYQQKPGKPPKLLIYGASNLASGVPSRFKGSGSGTDFTLTISSLQPEDFATYYCQNNYGIIAAGATFGGGTKVEIKRTVAAPSVFIFPPSDEQLKSGTASVVCLLNNFYPREAKVQWKVDNALQSGNSQESVTEQDSKDSTYSLSSTLTLSKADYEKHKVYACEVTHQGLSSPVTKSFNRGEC
Kd [1]: 327 nM

B2: XENP40590 (1D7B4, 2+1 VHVL) (antibody)
chain 1: B1 chain 1
chain 2: not shown
chain 3: B1 chain 3
Kd [1]: 21.9 nM

B5: XENP41027 (antibody)
chain 1: B1 chain 1
chain 2: EVQLLESGGGLVQPGGSLRLSCAVSGFSLSSYGVIWVRQAPGKGLEYVSWVSSGGSTNYASSVKGRFTISRDTSKNTVYLQMNSLRAEDTAVYFCARGATNSGTDIWGPGTLVTVSSGKPGSGKPGSGKPGSGKPGSDIVMTQSPSSLSASVGDRVTITCRASQSINSWLSWYQQKPGKPPKLLIYGASNLASGVPSRFKGSGSGTDFTLTISSLQPEDFATYYCQNNYGIIAAGATFGGGTKVEIKEPKSSDKTHTCPPCPAPELLGGPSVFLFPPKPKDTLMISRTPEVTCVVVDVSHEDPEVKFNWYVDGVEVHNAKTKPREEQYNSTYRVVSVLTVLHQDWLNGKEYKCKVSNKALPAPEEKTISKAKGQPREPQVYTLPPSREQMTKNQVKLTCLVKGFYPSDIAVEWESNGQPENNYKTTPPVLDSDGSFFLYSKLTVDKSRWQQGNVFSCSVMHEALHNHYTQKSLSLSPGK
chain 3: B1 chain 3
Kd (CD16): 242 nM

B8: XENP41025 (antibody)
chain 1: B1 chain 1
chain 2: B5 chain 2 with S271D
chain 3: B1 chain 3
Kd (CD16): 136 nM

B10: XENP40587 (1D2B4, 2+1 VHVL) (antibody)
chain 1: B1 chain 1
chain 2: not shown
chain 3: B1 chain 3
Kd [1]: 59.8 nM

B12: XENP41028 (antibody)
chain 1: B1 chain 1 with S239D, I332E
chain 2: not shown
chain 3: B1 chain 3
Kd (CD16): 120 nM

B13: XENP41021 (antibody)
chain 1: B1 chain 1
chain 2: not shown
chain 3: B1 chain 3
Kd (CD16): 417 nM

B14: XENP40457 (LB_1002, 1+1 VHVL) (antibody)
chain 1: B1 chain 1
chain 2: not shown
chain 3: B1 chain 3
Kd [1]: 458 nM

B15: XENP40584 (LB_1001, 2+1 VHVL) (antibody)
chain 1: B1 chain 1
chain 2: not shown
chain 3: B1 chain 3
Kd [1]: 122 nM

B16: XENP41026 (antibody)
chain 1: B1 chain 1
chain 2: B5 chain 2 with S271D, E364I
chain 3: B1 chain 3
Kd (CD16): 219 nM

B17: XENP41022 (antibody)
chain 1: B1 chain 1 with S239D, I332E
chain 2: B5 chain 2 with S271D
chain 3: B1 chain 3
Kd (CD16): 28.9 nM

B21: XENP40558 (1D7B4, mAb-scFv VHVL) (antibody)
chain 1: B1 chain 1
chain 2: not shown
chain 3: B1 chain 3
Kd [1]: 28.8 nM

B22: XENP40381 (LB_1001, 1+1 VHVL) (antibody)
chain 1: B1 chain 1
chain 2: not shown
chain 3: B1 chain 3
Kd [1]: 84.5 nM

B24: XENP40555 (1D2B4, mAb-scFv VHVL) (antibody)
chain 1: B1 chain 1
chain 2: not shown
chain 3: B1 chain 3
Kd [1]: 83.8 nM

B26: XENP40372 (1D2B4, 1+1 VHVL) (antibody)
chain 1: B1 chain 1
chain 2: not shown
chain 3: B1 chain 3
Kd [1]: 35.7 nM

Now from value to binder:

Kd (CD16): 60.2 nM
B3: XENP41032 (antibody)
chain 1: B1 chain 1 with S239D, I332E
chain 2: B5 chain 2
chain 3: B1 chain 3

Kd [1]: 278 nM
B4: XENP41337 (LB_1001, 2+1 VLVH) (antibody)
chain 1: B1 chain 1
chain 2: not shown
chain 3: B1 chain 3

Kd [1]: 83.1 nM
B6: XENP41339 (1D2B4, 2+1 VLVH) (antibody)
chain 1: B1 chain 1
chain 2: not shown
chain 3: B1 chain 3

Kd (CD16): 203 nM
B7: XENP41030 (antibody)
chain 1: B1 chain 1 with I332E
chain 2: not shown
chain 3: B1 chain 3

Kd (CD16): 59.9 nM
B9: XENP41033 (antibody)
chain 1: B1 chain 1 with S239D
chain 2: B5 chain 2 with S271D
chain 3: B1 chain 3

Kd [1]: 97.3 nM
B11: XENP41334 (LB_1002, 1+1 VLVH) (antibody)
chain 1: B1 chain 1
chain 2: not shown
chain 3: B1 chain 3

Kd (CD16): 100 nM
B18: XENP41035 (antibody)
chain 1: B1 chain 1 with S239D
chain 2: B5 chain 2
chain 3: B1 chain 3

Kd (CD16): 64.6 nM
B19: XENP41034 (antibody)
chain 1: B1 chain 1 with I332E
chain 2: B5 chain 2 with S271D
chain 3: B1 chain 3

Kd [1]: 359 nM
B20: XENP41341 (LB_1001, mAb-scFv VLVH) (antibody)
chain 1: B1 chain 1
chain 2: not shown
chain 3: B1 chain 3

Kd [1]: 680 nM
B23: XENP41342 (LB_1002, mAb-scFv VLVH) (antibody)
chain 1: B1 chain 1
chain 2: not shown
chain 3: B1 chain 3

Kd [1]: 13.9 nM
B25: XENP41336 (1D7B4, 1+1 VLVH) (antibody)
chain 1: B1 chain 1
chain 2: not shown
chain 3: B1 chain 3

Kd (CD16): 55.2 nM
B27: XENP41031 (antibody)
chain 1: B1 chain 1 with S239D, I332E
chain 2: B5 chain 2 with S271D, E364I
chain 3: B1 chain 3

Kd [1]: 18.4 nM
B28: XENP41340 (1D7B4, 2+1 VLVH) (antibody)
chain 1: B1 chain 1
chain 2: not shown
chain 3: B1 chain 3

Kd [1]: 41.7 nM
B29: XENP41335 (1D2B4, 1+1 VLVH) (antibody)
chain 1: B1 chain 1
chain 2: not shown
chain 3: B1 chain 3
